Source: PMC8696033
pKd: −log10 of the molar value.

Key:
[1] = target: WT murine C3b (mouse); assay: SPR; WT murine C3b amine coupled on a CM5 chip; 2-fold dilution series of the FH protein flowed over in duplicate, 30 µl/min; HBST (10 mM HEPES, 150 mM NaCl, 0.005% Tween 20, pH 7.4); steady-state model
[2] = target: mouse homodimeric minimal factor H (mHDM-FH, mFH^1–5^18–20^R1–2) (mouse) (UniProt P06909); assay: SEC; analytical size exclusion gel filtration; elution volume compared with mFLFH and mini-mFH
[3] = target: WT murine C3b (mouse)

pKd [1]	stoichiometry N [2]	Substance	IC50 of protection of sheep erythrocytes from lysis by mouse serum (haemolysis assay) [3]
5.77	–	Mouse full length Factor H (mFLFH) (from UniProt P06909 19-1234) (natural protein)	–
6.30	2	mouse homodimeric minimal factor H (mHDM-FH, mFH^1–5^18–20^R1–2) (from UniProt P06909 19-321; P06909 1050-1234; Q61406 24-152)	8 nM
